# Reference: article PMC10873877
# Target: His-AvrXa27 (Xanthomonas oryzae pv. oryzae, UniProt Q4QS99 1-1136)
# Experiment: EMSA; […]; buffer, […], pH and temperature not stated
# Details: protein: recombinant; tags: His (pET-30a); label: Cy5; blunt
binder,measurement,value
Xa13p-14 (dsDNA) DNA 1: ATCTCCCCCTACTCTACAT DNA 2: ATGTAGAGTAGGGGGAGAT,binding result,no binding
